Source: the supplement of paper PMC9233669
Variants at the floor of the assay were thinned out.

Legend:
biotinyl-Phe-oxazolone = assay: self-aminoacylation, catalytic enhancement (BFO) (fold over background); higher = more active; k-Seq, kA / k0A0; sequences stand for … in GGGAAUGGAUCCACAUCUACGAAUUC…UUCACUGCAGACUUGACGAAGCUG
How it was run: (§1)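 Working in 50 μL HEPES/NaCl/KCl/MgCl2/CaCl2 buffer with 5% acetonitrile at pH 6.9–7.0, mutagenized RNA pools (0.43 μM; 21-nt variable region) were reacted with 2–1250 μM of each biotinyl-aminoacyl-oxazolone for 90 minutes at room temperature. Streptavidin capture followed, with quantification by triplicate qPCR and Illumina sequencing. Catalytic enhancement is reported as median kA over the uncatalyzed rate, the low-activity peak of a bimodal Gaussian fit to the data.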

biotinyl-Ile-oxazolone = assay: self-aminoacylation, catalytic enhancement (BIO) (fold over background); higher = more active; k-Seq, kA / k0A0; sequences stand for … in GGGAAUGGAUCCACAUCUACGAAUUC…UUCACUGCAGACUUGACGAAGCUG
How it was run: as §1

biotinyl-Met-oxazolone = assay: self-aminoacylation, catalytic enhancement (BMO) (fold over background); higher = more active; k-Seq, kA / k0A0; sequences stand for … in GGGAAUGGAUCCACAUCUACGAAUUC…UUCACUGCAGACUUGACGAAGCUG
How it was run: as §1

biotinyl-Val-oxazolone = assay: self-aminoacylation, catalytic enhancement (BVO) (fold over background); higher = more active; k-Seq, kA / k0A0; sequences stand for … in GGGAAUGGAUCCACAUCUACGAAUUC…UUCACUGCAGACUUGACGAAGCUG
How it was run: as §1

biotinyl-Leu-oxazolone = assay: self-aminoacylation, catalytic enhancement (BLO) (fold over background); higher = more active; k-Seq, kA / k0A0; sequences stand for … in GGGAAUGGAUCCACAUCUACGAAUUC…UUCACUGCAGACUUGACGAAGCUG
How it was run: as §1

biotinyl-Trp-oxazolone = assay: self-aminoacylation, catalytic enhancement (BWO) (fold over background); higher = more active; k-Seq, kA / k0A0; sequences stand for … in GGGAAUGGAUCCACAUCUACGAAUUC…UUCACUGCAGACUUGACGAAGCUG
How it was run: as §1

Sequence | self-aminoacylation (biotinyl-Phe-oxazolone) | self-aminoacylation (biotinyl-Ile-oxazolone) | self-aminoacylation (biotinyl-Met-oxazolone) | self-aminoacylation (biotinyl-Val-oxazolone) | self-aminoacylation (biotinyl-Leu-oxazolone) | self-aminoacylation (biotinyl-Trp-oxazolone)
CCACACUUCGAGCGAUCGGUC [Fam1B.1 aminoacylation ribozyme variant] | 2.95 | 1.43 | 1.64 | 1.69 | 1.86 | 1.38
AUGACCCUAGUCAUCGAGUGA [Fam2.1 aminoacylation ribozyme variant] | 26.6 | 3.13 | 6.07 | 3.27 | 5.61 | 7.34
AUUCACCUAGGUAAUGGGGUG [Fam2.2 aminoacylation ribozyme variant] | 27.6 | 2.4 | 5.17 | 2.58 | 6.27 | 4.53
GAGUUUGCUAGUAGUCGCAAG [Fam3.1 aminoacylation ribozyme variant] | 1.92 | 1.21 | 1.28 | 1.04 | 0.89 | 0.876
CUACUUCAAACAAUCGGGCUC [Fam1A.1 aminoacylation ribozyme variant] | 5.16 | 1.01 | 1.08 | 1.17 | 0.971 | 2.48
AUUUACCUAGGGCAUCGGGUG [Fam2.2 aminoacylation ribozyme variant] | 16.7 | 2.92 | 3.65 | 3.12 | 3.47 | 3.7
CUACUUCACACCAUCGGUCUG [Fam1A.1 aminoacylation ribozyme variant] | 0.625 | 0.82 | 0.943 | 0.949 | 0.764 | 0.885
AUUACCAUGGUGAUCGAGUGA [Fam2.1 aminoacylation ribozyme variant] | 14.7 | 2.33 | 3.59 | 2.4 | 4.04 | 4.4
CCACACUUCAUGCAAUGGGUC [Fam1B.1 aminoacylation ribozyme variant] | 0.544 | 0.751 | 0.738 | 0.712 | 0.704 | 0.569
AUGCACCUAGGUCACCGGGUG [Fam2.2 aminoacylation ribozyme variant] | 25 | 3.86 | 3.97 | 3.68 | 3.59 | 4.46
AUUCACCUAGGUCUCCGGGUG [Fam2.2 aminoacylation ribozyme variant] | 47.5 | 4.71 | 7.84 | 4.49 | 9.35 | 8.48
AUUACCCUGGUUAUCUAGUGA [Fam2.1 aminoacylation ribozyme variant] | 93.5 | 5.78 | 14.4 | 6.4 | 15.3 | 17.6
AAUCACCUGGGUCAUCGGGUG [Fam2.2 aminoacylation ribozyme variant] | 31.9 | 4.12 | 4.32 | 6.36 | 4.47 | 7.63
AUUCAACAAGGUCAUCGGGUG [Fam2.2 aminoacylation ribozyme variant] | 57.7 | 4.09 | 7.02 | 3.32 | 7.96 | 5.71
UUUCACCUAGGUCAGCGGGUG [Fam2.2 aminoacylation ribozyme variant] | 24.2 | 3.75 | 4.92 | 3.92 | 5.53 | 5.12
CUACUUGAAUCAAUCGGUCUG [Fam1A.1 aminoacylation ribozyme variant] | 0.466 | 0.857 | 0.811 | 0.782 | 0.705 | 0.582
CUACUUCAACCAUUCGGUCUG [Fam1A.1 aminoacylation ribozyme variant] | 0.891 | 1.21 | 1.17 | 1.26 | 1.19 | 1.52
AUUACUCUGGUGAUCGAGUGA [Fam2.1 aminoacylation ribozyme variant] | 21.8 | 2.92 | 5.34 | 2.57 | 5.72 | 6.39
CCACACUUCAAGCAUUCGGUG [Fam1B.1 aminoacylation ribozyme variant] | 68.5 | 5.54 | 8.89 | 5.97 | 11 | 7.88
AUUAGCCUGGUCAUCGCGUGA [Fam2.1 aminoacylation ribozyme variant] | 165 | 10.3 | 21.7 | 11.2 | 22.3 | 22.6
GUUCACCUAGGUCAGCGGGUG [Fam2.2 aminoacylation ribozyme variant] | 26.1 | 2.92 | 4.02 | 3.23 | 4.21 | 4.42
AAGUUUGCUAAUAGUCGCCCG [Fam3.1 aminoacylation ribozyme variant] | 9.34 | 3.76 | 2.98 | 2.69 | 3.87 | 3.76
AUUCAGCUAGGUAAUCGGGUG [Fam2.2 aminoacylation ribozyme variant] | 23.8 | 2.69 | 4.03 | 2.65 | 4.57 | 4.43
AUUACCCUGGUGAUAGAGUGA [Fam2.1 aminoacylation ribozyme variant] | 53.4 | 3.75 | 9.04 | 3.62 | 8.59 | 8.54
AUUACCCUGGUCAGCGAGUGU [Fam2.1 aminoacylation ribozyme variant] | 15.4 | 2.49 | 3.7 | 2.41 | 3.85 | 4.47
AUUCCUCUGGUCAUCGAGUGA [Fam2.1 aminoacylation ribozyme variant] | 31.6 | 3.75 | 6.73 | 4.02 | 6.46 | 7.73

Sequence | self-aminoacylation (biotinyl-Phe-oxazolone) | self-aminoacylation (biotinyl-Ile-oxazolone) | self-aminoacylation (biotinyl-Met-oxazolone) | self-aminoacylation (biotinyl-Val-oxazolone) | self-aminoacylation (biotinyl-Leu-oxazolone) | self-aminoacylation (biotinyl-Trp-oxazolone)
AAGUUUGCUAAUAAUCGAAAG [Fam3.1 aminoacylation ribozyme variant] | 0.807 | 1.02 | 0.793 | 0.764 | 0.95 | 0.78
GUUCGCCUAGGUCAUCGGGUG [Fam2.2 aminoacylation ribozyme variant] | 121 | 9.85 | 18.9 | 10.2 | 22.8 | 14.9
UUACUUCAAACAAUCGGUUUG [Fam1A.1 aminoacylation ribozyme variant] | 31.5 | 1.59 | 1.48 | 1.24 | 1.86 | 20.3
CCACACUUCAUGCAAUCGGGC [Fam1B.1 aminoacylation ribozyme variant] | 0.961 | 1.86 | 1.25 | 1.84 | 1.38 | 1.77
AUUACCCUAGUCAUCUAGUGA [Fam2.1 aminoacylation ribozyme variant] | 27.6 | 3.37 | 7.37 | 3.59 | 6.97 | 10.6
CGACACUUCAAGUAAUCGGUC [Fam1B.1 aminoacylation ribozyme variant] | 3.36 | 1.69 | 1.5 | 1.47 | 1.16 | 2.28
AUUCACCUAGGUCAUAGUGUG [Fam2.2 aminoacylation ribozyme variant] | 0.512 | 0.658 | 0.625 | 0.727 | 0.67 | 0.453
AUGCACCUAGUUCAUCGGGUG [Fam2.2 aminoacylation ribozyme variant] | 13.6 | 2.77 | 2.73 | 2.37 | 3.07 | 4.29
AAGUCUGGUAAUAGUCGCAAG [Fam3.1 aminoacylation ribozyme variant] | 2.18 | 1.17 | 1.16 | 0.918 | 0.903 | 0.868
CUACUUCAAACAAUCCGUCUC [Fam1A.1 aminoacylation ribozyme variant] | 1.18 | 0.634 | 0.471 | 0.751 | 0.44 | 0.858
AUAACCCUGGUGAUCGAGUGA [Fam2.1 aminoacylation ribozyme variant] | 36.3 | 3.03 | 6.53 | 3.03 | 6.37 | 7.08
CCACACUUCAAGCAAUCAGUA [Fam1B.1 aminoacylation ribozyme variant] | 1.17 | 0.983 | 0.861 | 0.842 | 0.899 | 0.842
AGGUUUGCUAAUAGUCGAAAG [Fam3.1 aminoacylation ribozyme variant] | 13.6 | 1.2 | 1.16 | 1.02 | 0.991 | 3.4
AUUACCCUGAUCAUCCAGUGA [Fam2.1 aminoacylation ribozyme variant] | 16.9 | 2.91 | 5.79 | 3.49 | 5.22 | 7.09
AUUCGCCUAGGUCAUCGGAUG [Fam2.2 aminoacylation ribozyme variant] | 0.493 | 0.941 | 0.94 | 1.07 | 0.903 | 0.704
CUACUUAAAACAAUCGUUCUG [Fam1A.1 aminoacylation ribozyme variant] | 0.579 | 0.568 | 0.592 | 0.57 | 0.432 | 0.503
GUUCACCUAGGUCAUCAGGUG [Fam2.2 aminoacylation ribozyme variant] | 2.03 | 1.23 | 1.09 | 1.35 | 1.32 | 1.06
CUACUUCAAGCAAUCGGUCGG [Fam1A.1 aminoacylation ribozyme variant] | 5.87 | 1.53 | 1.08 | 1.25 | 1.69 | 4.8
AUCACCCUGCUCAUCGAGUGA [Fam2.1 aminoacylation ribozyme variant] | 19.1 | 1.57 | 2.48 | 1.9 | 2.67 | 3.44
AUACCCCUAGGUCAUCGGGUG [Fam2.2 aminoacylation ribozyme variant] | 71.2 | 5.22 | 8.28 | 5.95 | 10.7 | 7.88
AUUACCCUGGUCUUCUAGUGA [Fam2.1 aminoacylation ribozyme variant] | 23.6 | 2.92 | 5.28 | 3.54 | 5.65 | 7.45
AUUACCCUUGUCAUUGAGUGA [Fam2.1 aminoacylation ribozyme variant] | 34 | 4.11 | 8.1 | 4.34 | 8.5 | 10.6
CUACUUCAAACUAUCGGUCUG [Fam1A.1 aminoacylation ribozyme variant] | 1.15 | 0.906 | 0.818 | 0.905 | 0.779 | 0.905
CUACUUCGAACAAUCGGUCGG [Fam1A.1 aminoacylation ribozyme variant] | 2.37 | 1.02 | 1.34 | 0.922 | 1.41 | 0.974
AUGUUUUCUAAUAGUCGCAAG [Fam3.1 aminoacylation ribozyme variant] | 2.58 | 1.62 | 1.62 | 1.2 | 1.52 | 2.2
